Test results taken from patent US20230295324A1 (published 2023).

Columns and labels:
[1] = biological target: T1, human OX40 on cells (CHO-K1/hu OX40) (human, UniProt P43489 29-277); experiment: cell-based or functional assay
T1 sequence (looked up): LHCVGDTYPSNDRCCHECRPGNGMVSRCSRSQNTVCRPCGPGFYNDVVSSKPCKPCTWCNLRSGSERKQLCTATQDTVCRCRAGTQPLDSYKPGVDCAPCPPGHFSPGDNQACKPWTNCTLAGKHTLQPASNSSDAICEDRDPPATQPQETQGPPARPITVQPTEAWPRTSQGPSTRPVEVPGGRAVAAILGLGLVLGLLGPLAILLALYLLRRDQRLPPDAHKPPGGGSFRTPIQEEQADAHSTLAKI

[2] = biological target: T1, human OX40 on cells (CHO-K1/hu OX40); experiment: cell-based or functional assay; remark: listed apart in the source
[3] = biological target: T1, human OX40 on cells (CHO-K1/hu OX40); experiment: FACS, CHO-K1/hu OX40 cells
Outline: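 Binding of anti-human OX40 HCAb antibodies measured by flow cytometry on CHO-K1 cells stably overexpressing human OX40. Cells incubated with 3-fold serially diluted antibodies 1 h at 4 °C in the dark, washed, then secondary staining 30 min at 4 °C; fluorescence read by FACS.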

[4] = biological target: T2, cynomolgus monkey OX40 protein (Novoprotein, #CB17) (cynomolgus monkey); experiment: ELISA, coated cyno OX40 protein
T2 construct: Bought recombinant protein; also called cyno OX40

[5] = biological target: T3, human OX40 protein (Acro biosystem, #OX0-H5224) (human, UniProt P43489 29-216); experiment: ELISA, coated human OX40 protein
T3 construct: Bought recombinant protein
T3 sequence (looked up): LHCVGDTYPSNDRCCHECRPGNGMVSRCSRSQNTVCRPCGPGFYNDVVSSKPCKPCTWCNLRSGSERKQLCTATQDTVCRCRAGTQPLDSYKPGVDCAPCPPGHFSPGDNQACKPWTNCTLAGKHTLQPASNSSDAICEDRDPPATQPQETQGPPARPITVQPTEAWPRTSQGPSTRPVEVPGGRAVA

[6] = biological target: T4, human 4-1BB on CHO-K1 cells (CHO-K1/hu 4-1BB) (human, UniProt Q07011 24-255); experiment: flow cytometry on CHO-K1/hu 4-1BB cells
T4 construct: whole, on cells
Protocol: This example is intended to investigate the specificity of in vitro binding of anti-human OX40 HCAb monoclonal antibodies by detecting 3 receptors of the TNF tumor necrosis factor receptor superfamily and ICOS by flow cytometry. The antibody binding assay at the cellular level was performed using a CHO-K1 cell strain overexpressing human OX40 (CHO-K1/hu OX40), a CHO-K1 cell strain overexpressing human CD40 (CHO-K1/hu CD40, Beijing KYinno, #KC-1286), a CHO-K1 cell strain overexpressing human 4-1BB (CHO-K1/hu 4-1BB, Genscript, #M00538) and an HEK293 cell strain overexpressing human ICOS (HEK293T/ICOS, Genscript, #KC-0210). Briefly, these cells were digested and resuspended in F12K or DMEM complete medium, and the cell density was adjusted to 1×10⁶ cells/mL. The cells were seeded in a 96-well V-bottom plate at 100 μL/well, and centrifuged, and then the supernatant was discarded. Then, the test antibodies diluted in a 3-fold gradient were added at 100 μL/well. The cells were incubated at 4° C. for 1 h away from light. Thereafter, the cells in each well were rinsed twice with 100 μL of pre-cooled PBS, and centrifuged at 500 g at 4° C. for 5 min, and then the supernatant was discarded. […] Finally, the cells in each well were resuspended in 200 μL of pre-cooled PBS, and the fluorescence signal values were read using NovoCyte flow cytometer (ACEA Biosciences).

T4 sequence (Q07011 24-255): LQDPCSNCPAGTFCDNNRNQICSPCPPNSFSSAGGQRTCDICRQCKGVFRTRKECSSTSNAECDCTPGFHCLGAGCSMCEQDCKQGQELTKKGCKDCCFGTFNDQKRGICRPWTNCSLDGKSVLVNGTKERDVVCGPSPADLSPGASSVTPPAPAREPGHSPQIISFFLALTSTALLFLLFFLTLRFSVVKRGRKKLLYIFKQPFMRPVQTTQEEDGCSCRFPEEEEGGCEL

B1: PR002067 (antibody, human IgG1, V domains shown)
VH: EVQLLESGGGLVQPGGSLRLSCAASGFTFSSYAMSWVRQAPGKGLEWVSAISGRGGSTFYADSVRGRFTISRDNSKNTLYLQMNSLRAEDTAMYYCVDGTTGTTDVDYWGQGTLVTVSS
notes: no light chain; also called anti-OX40 HCAb antibody
- EC50, HEK293/OX40/NF-kb luciferase reporter [1]: 5.37 nM
- Maximum fluorescence signal value, HEK293/OX40/NF-kb luciferase reporter [1]: 137000 luminescence
- EC50, IFN-γ release by human T cells with OKT3 and CHO-K1-CD32b cells [2]: 0.0863 nM
- Maximum IFN-γ release value [2]: 2000
- EC50 [3]: 5.25 nM
- Maximum MFI [3]: 3010 MFI
- EC50 [4]: 0.232 nM
- Maximum OD [4]: 2.16 OD
- EC50 [5]: 0.0806 nM
- Maximum OD [5]: 2.38 OD
- binding result [6]: no binding
